Source: the supplement of paper PMC5998384

How the values were obtained:
HeLa Kyoto [1] = assay: solubility in G1/S (NP-40 vs SDS abundance) (log2 ratio); higher = more soluble; conditions: cell cycle stage: G1/S
HeLa Kyoto [2] = assay: melting temperature (median over replicates), in situ; higher = more thermally stable
HeLa Kyoto [3] = assay: solubility change mitosis vs G1/S (difference of NP-40 vs SDS log2 ratios) (log2 ratio difference); higher = more soluble in mitosis
HeLa Kyoto [4] = assay: thermal stability score vs G1/S (z-score of summed log2 fold changes over temperatures); higher = more thermally stable than in G1/S
[5] = cell cycle stage: early G1 (4.5 h after nocodazole release)
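Wherever melting temperature (median over replicates), in situ is given: HeLa Kyoto cells synchronized by double thymidine or nocodazole block, proteins quantified by TMT10plex mass spectrometry, three independent biological replicates.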
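Wherever solubility change mitosis vs G1/S (difference of NP-40 vs SDS log2 ratios) is given: synchronized HeLa Kyoto cells (double thymidine block for G1/S, nocodazole release for mitosis), protein amounts in NP-40 versus SDS lysates quantified by mass spectrometry, three biological replicates.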
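Wherever solubility in G1/S (NP-40 vs SDS abundance) is given: HeLa Kyoto cells arrested at G1/S by double thymidine block, proteins quantified by TMT10plex mass spectrometry in mild NP-40 versus SDS extracts, three biological replicates.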
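Wherever thermal stability score vs G1/S (z-score of summed log2 fold changes over temperatures) is given: synchronized HeLa Kyoto cells, proteins quantified by TMT10plex mass spectrometry, three biological replicates, mitosis taken 0.5 h after nocodazole release, G1/S directly after double thymidine block.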

MSKYKLIMLRHGEGAWNKENRFCSWVDQKLNSEGMEEARNCGKQLKALNFEFDLVFTSVLNRSIHTAWLILEELGQEWVPVESSWRLNERHYGALIGLNREQMALNHGEEQVRLWRRSYNVTPPPIEESHPYYQEIYNDRRYKVCDVPLDQLPRSESLKDVLERLLPYWNERIAPEVLRGKTILISAHGNSSRALLKHLEGISDEDIINITLPTGVPILLELDENLRAVGPHQFLGDQEAIQAAIKKVEDQGKVKQAKK [BPGM]
solubility in G1/S (log2) (HeLa Kyoto [1]): 0.328
melting temperature (HeLa Kyoto [2]; cell cycle stage: G1/S): 53.1 °C
melting temperature (HeLa Kyoto [2]; cell cycle stage: mitosis): 55.1 °C
solubility change mitosis (log2) (HeLa Kyoto [3]): -0.0036
thermal stability score (HeLa Kyoto [4]; [5]): 1.51
thermal stability score (HeLa Kyoto [4]; cell cycle stage: mitosis): 0.348

MSLEDPFFVVRGEVQKAVNTARGLYQRWCELLQESAAVGREELDWTTNELRNGLRSIEWDLEDLEETIGIVEANPGKFKLPAGDLQERKVFVERMREAVQEMKDHMVSPTAVAFLERNNREILAGKPAAQKSPSDLLDASAVSATSRYIEEQQATQQLIMDEQDQQLEMVSGSIQVLKHMSGRVGEELDEQGIMLDAFAQEMDHTQSRMDGVLRKLAKVSHMTSDRRQWCAIAVLVGVLLLVLILLFSL [STX10]
solubility in G1/S (log2) (HeLa Kyoto [1]): -0.293
melting temperature (HeLa Kyoto [2]; cell cycle stage: G1/S): 52.1 °C
melting temperature (HeLa Kyoto [2]; cell cycle stage: mitosis): 51.6 °C
solubility change mitosis (log2) (HeLa Kyoto [3]): -0.107
thermal stability score (HeLa Kyoto [4]; [5]): 2.01
thermal stability score (HeLa Kyoto [4]; cell cycle stage: mitosis): 0.0715

MSLFGTTSGFGTSGTSMFGSATTDNHNPMKDIEVTSSPDDSIGCLSFSPPTLPGNFLIAGSWANDVRCWEVQDSGQTIPKAQQMHTGPVLDVCWSDDGSKVFTASCDKTAKMWDLSSNQAIQIAQHDAPVKTIHWIKAPNYSCVMTGSWDKTLKFWDTRSSNPMMVLQLPERCYCADVIYPMAVVATAERGLIVYQLENQPSEFRRIESPLKHQHRCVAIFKDKQNKPTGFALGSIEGRVAIHYINPPNPAKDNFTFKCHRSNGTNTSAPQDIYAVNGIAFHPVHGTLATVGSDGRFSFWDKDARTKLKTSEQLDQPISACCFNHNGNIFAYASSYDWSKGHEFYNPQKKNYIFLRNAAEELKPRNKK [RAE1]
solubility in G1/S (log2) (HeLa Kyoto [1]): -0.0787
melting temperature (HeLa Kyoto [2]; cell cycle stage: G1/S): 49.8 °C
melting temperature (HeLa Kyoto [2]; cell cycle stage: mitosis): 49.1 °C
solubility change mitosis (log2) (HeLa Kyoto [3]): 0.128
thermal stability score (HeLa Kyoto [4]; [5]): -1.34
thermal stability score (HeLa Kyoto [4]; cell cycle stage: mitosis): -0.473

MSLGRLCRLLKPALLCGALAAPGLAGTMCASRDDWRCARSMHEFSAKDIDGHMVNLDKYRGFVCIVTNVASQUGKTEVNYTQLVDLHARYAECGLRILAFPCNQFGKQEPGSNEEIKEFAAGYNVKFDMFSKICVNGDDAHPLWKWMKIQPKGKGILGNAIKWNFTKFLIDKNGCVVKRYGPMEEPLVIEKDLPHYF [GPX4]
solubility in G1/S (log2) (HeLa Kyoto [1]): 0.136
melting temperature (HeLa Kyoto [2]; cell cycle stage: G1/S): 56.3 °C
melting temperature (HeLa Kyoto [2]; cell cycle stage: mitosis): 56.3 °C
solubility change mitosis (log2) (HeLa Kyoto [3]): -0.141
thermal stability score (HeLa Kyoto [4]; [5]): -2.51
thermal stability score (HeLa Kyoto [4]; cell cycle stage: mitosis): -2.1

MSLHGKRKEIYKYEAPWTVYAMNWSVRPDKRFRLALGSFVEEYNNKVQLVGLDEESSEFICRNTFDHPYPTTKLMWIPDTKGVYPDLLATSGDYLRVWRVGETETRLECLLNNNKNSDFCAPLTSFDWNEVDPYLLGTSSIDTTCTIWGLETGQVLGRVNLVSGHVKTQLIAHDKEVYDIAFSRAGGGRDMFASVGADGSVRMFDLRHLEHSTIIYEDPQHHPLLRLCWNKQDPNYLATMAMDGMEVVILDVRVPCTPVARLNNHRACVNGIAWAPHSSCHICTAADDHQALIWDIQQMPRAIEDPILAYTAEGEINNVQWASTQPDWIAICYNNCLEILRV [DCAF7]
solubility in G1/S (log2) (HeLa Kyoto [1]): -0.0563
melting temperature (HeLa Kyoto [2]; cell cycle stage: G1/S): 52.2 °C
melting temperature (HeLa Kyoto [2]; cell cycle stage: mitosis): 52.5 °C
solubility change mitosis (log2) (HeLa Kyoto [3]): -0.147
thermal stability score (HeLa Kyoto [4]; [5]): 0.282
thermal stability score (HeLa Kyoto [4]; cell cycle stage: mitosis): -1.1

MSLICSISNEVPEHPCVSPVSNHVYERRLIEKYIAENGTDPINNQPLSEEQLIDIKVAHPIRPKPPSATSIPAILKALQDEWDAVMLHSFTLRQQLQTTRQELSHALYQHDAACRVIARLTKEVTAAREALATLKPQAGLIVPQAVPSSQPSVVGAGEPMDLGELVGMTPEIIQKLQDKATVLTTERKKRGKTVPEELVKPEELSKYRQVASHVGLHSASIPGILALDLCPSDTNKILTGGADKNVVVFDKSSEQILATLKGHTKKVTSVVFHPSQDLVFSASPDATIRIWSVPNASCVQVVRAHESAVTGLSLHATGDYLLSSSDDQYWAFSDIQTGRVLTKVTDETSGCSLTCAQFHPDGLIFGTGTMDSQIKIWDLKERTNVANFPGHSGPITSIAFSENGYYLATAADDSSVKLWDLRKLKNFKTLQLDNNFEVKSLIFDQSGTYLALGGTDVQIYICKQWTEILHFTEHSGLTTGVAFGHHAKFIASTGMDRSLKFYSL [PRPF19]
solubility in G1/S (log2) (HeLa Kyoto [1]): -0.473
melting temperature (HeLa Kyoto [2]; cell cycle stage: G1/S): 56.5 °C
melting temperature (HeLa Kyoto [2]; cell cycle stage: mitosis): 54 °C
solubility change mitosis (log2) (HeLa Kyoto [3]): 0.214
thermal stability score (HeLa Kyoto [4]; [5]): -0.506
thermal stability score (HeLa Kyoto [4]; cell cycle stage: mitosis): -3.39
